Data published in the nanobody polyreactivity screen of Harvey et al. (2022).

Experiment: yeast display, Sf9 membrane polyspecificity reagent, FACS + sequencing; frameworks hold sequencing errors
Procedure, shortened: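 After 36–48 hours of galactose induction, yeast (Saccharomyces cerevisiae BJ5465) displaying a synthetic nanobody library were stained at 4 °C for 1 hour with 10% biotinylated, detergent-solubilized Sf9 membrane reagent. Streptavidin microbeads enriched the stained cells before FACS sorting into low and high (top ~1%) gates on anti-HA and streptavidin fluorescence. Each clone's polyreactivity label reflects its gate of origin.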

Row | Sequence | polyreactivity (PSR sort gate)
1 | QVQLVESGGGLVQAGGSLRLSCAASGGTRAHNAMGLYRQAPGKERELVAAISWRGGSTYYADSVKGRCTISRDNAKNTVYLQMNSLKPEDTAVYYCAKEQYVPDRPSFKNLNTYDYWGQGTQVTVSS | low polyreactivity
2 | QVQLVESGGGLVQAGGSLRLSCAASGRTFYEYAMGWYRQAPGKESELVASIRSGGSTFYADSVKGRFTISRDNAKYTVYLQMNSLKPEDTAVYYCAAYRVPPYRYRFARVNYWGQGTQVTVSS | high polyreactivity
3 | QVQLVESGGGLVQAGGSLRLSCAASGSTFRSYTRGWYRQAPGKERELVAAIRKSGVRTYYADSVKGRFTISRDNAKNTVYLQMNSLKPEDTAVYYCNRPKWYDGDYWGQGTEVTVSS | high polyreactivity
4 | QVQLVESGGGLVQAGGSLRLSCAASGRTFYAYAMGWYRQAPGKERELVAAINTSGGRTYYADSVKGRFTISRDNAKNTVYLLMNSLKPEDTAVYYCAADVFTFYPRRYDYWGQGTQVTVSS | low polyreactivity
5 | QVQLQESGGGLVQAGGSLRLSCAASGNIVDADIMGWYRQAPGKERELVASITDGGSTNYADSVKGRFTISSDNAKNTVYLQMNSLKPEDTAVYYCAAIAYPDIPTYFDYDSEYFYWGQGTQVTVSS | low polyreactivity
6 | QVQHVESGGGLVQAGGSLRLSCAASGRIFTYYTMGWYRQAPGKERELVAAISWSGGRTYYADSVKGRFTISRDNAKNTVYLQMNSLKPEDTAVYYCARLQDSRESPWRGYYWGQGTQVTVSS | high polyreactivity
7 | QVQLVESGGGLVQAGGSLRLSCAASGSTLYPYDMGWYRQAPGKERELVAAIDSGGSTNYADSVKGRFTISRDNAKNTVYLQMNSLKPEDTAVYYCATEILTAARDTVVYQFYLGYYYWGQGTQVTVSS | low polyreactivity
8 | QVQLVESGGGLVQAGGSIRLSCAASGSIYPFYSMGWYRQATGKEMELVAAISDSGGDTYYADSVKGRFTISRDNAKNTVYLQMNSLKPEDTAVYYCAADWFYNSFNYWGQGTQVTVSS | low polyreactivity
9 | QVQHLESGGGLVQAGGSLRLSCVASGLTQPYAMRWYRQAPGKERQLVAAITGGDGSTTYADSVKGRFTISRVNAKNTVYLQMNSLKPEDTAVYYCNADTARKYAESQFYHWGQGTQVSVSS | low polyreactivity
10 | QVQLVESGGGLVQAGGSLRLSCAASGSIFSSYAMGGYRQAPGKEWELVAAISRRGGSTYYADSVKGRFTISRDNAKNTVYLQMNSLKPEDTAVYYCNADSAARKGWPIYGYWGQGTQVTVSS | high polyreactivity
11 | QVQLVESGGGLDQAGGSLPLRCAATGSIFHDYALGWYSQAPGKERELVAVISTSGGSTYYADSVKGRFTISRDNAKNTVYLQMNSLKPEDTAVYYCNAELSFWALGYDYWGQGTQVTVSS | low polyreactivity
12 | QVQLVESGGGLVQAGGSLRLSCAASGSTFRPYAMGWYRPAPGKEREFVASISNTGGSTSYADSVKGRFTISRDNAMNTVYFQMNSLKPEDTAVYYCAARFGYRPWYRMDYWGQGTQVAVSS | high polyreactivity
13 | PVQLVESGGGLVQAGGSLRLSCAAAGLTFPPNAMGWYRQAPGKERELVADSGGSTNYADSVKGRFTISRDNAKNTVYLQMNSLNPEDTAVYYCAVPPYSDGQWDDYWGQGTQVTVSS | low polyreactivity
14 | QVQLVESGGGLVQAGGSIRLSSAASGLIFLGDPMGWYRQAPGKERELVASIRTGRSTSYADSVKGRFTFSRDNAKYTVYLQMNSLKPEDTAVYYCAADRGRPNLPGDYWGQGSQVTVSS | low polyreactivity
15 | QVQLQESGGGLVQAGGSLRLSCAASGYISHADEMGWYRQAPGLEHELVASISNGGSTNYADSVKGLFTISRDNAKNTEYLQLNSLKSEDTAVYYCAAWTGQVDIHYYWGQGTQVTVSS | low polyreactivity
16 | QVQLVESGGGLVQAGGSLRLSCAASGSIFRYNALGWYRQAPGKEREFVAAITRSGGSTYADSVKGRFTISRDNAKNTVYLQMNSLKPEDTAVYYCAATFKWYSHTKPRFDYWGQGTQVTVSS | low polyreactivity
17 | QVQLVESGGGLVQAGGSLRLSCADSGSIFRYNAMGWSRQAPGKERELVAAISGSGGSTYYADSVKGRFTISRDNAKNTVYLQRNSLKPEDTAVYYCNTRVYHYHYSYYPGGYWGQGTQVTVSS | high polyreactivity
18 | QVQLVESGGGLVQAGGSLRLSCAASGSTFRVYAMGWYRQAPGKERELVAGISWRGGSTSYADSVKGRFTISRDNAKNTVYLQMNSLKPEDTAVYYCAVQRSYVGPRQYNYWGQGTQVTVSS | high polyreactivity
19 | QVQLVESGGGLVQAGGSLRLSCAASGLTFDRYAKGWYRQAPGKERELVAAITSGGSTYYADSVKGRFTISRDNAKNTVYLQMNSLKPEDTAVYYCAALVFRGRSFTHDYWGQGTQVTVSS | high polyreactivity
20 | QVQLVESGGGLVQAGGSLRLSCAASGSTFSGYAMGWYRQAPGKERELVAAITLGGGSTYYADSVKGRFTISRDNAKNTVYLQMNSLKPEDTAVYYCAAGDIYYAEYDYWGQGTQVTVSS | low polyreactivity
21 | QVQLVESGGGLVQAGGSLRLSCAASGRTFGYNAMGWYRQAPGTERELVAAIRTIGDSTYYADSVKGRFTISRDNAKNTVYLQMNILKPVDTSVYYCAARKLRSRFDYWGQGTQVTVSS | high polyreactivity
22 | QVQLVESGGGLVQAGGSLRLSCAASGSTFDYNTMGWYRQAPGKERELVAAISESGGSTYYADSVKGRFTISRDNAKNTVYLQMNSLKPEDTAVSYCATDDFGGYFGEYDYWGQGTQVTVSS | low polyreactivity

Row | Sequence | polyreactivity (PSR sort gate)
23 | QVQLVESGGGLVQAGGSLRLSCAASGFTFRWYTMGWYRQAPGKERELVAAISWSGTSTYYADSVKGRFTISRDNAKNIVYLQMNSLKPEDTAVYYCAAADFYYTGADDYWGQGTQVTVSS | high polyreactivity
24 | QVQLVESGGGLVQAGGSLRLSCAASGSTFPSYAMGWYRQAPGKERELVASITSSGGSTYYADSVKGRFTISRDNAKNTVYLQMNSLKPEDTAVYYCNARRYYYSWGREGGYWGQGTQVTVSS | low polyreactivity
25 | QVQLVESGGGLVQAGGSLRLSCAASGIIFAWNTMGWSRHPPGKERELVAAISSSGGSTYYADSVKGRFTISRDNAKNTVYLQMNSLKPEDTAVYYCAADGYHWIHEYDYWGQGTQVTVSS | low polyreactivity
26 | QVQLVESGGGLVQAGGSLRLSCAASGSIFGSYAIGWYRHAPGKERELVAAIRYNSGSTYYADSVKGRFTISRDNAKNTVYLQMNSLKPEDTAVYYCAAYLLWGFDYWVQGTQVTVSS | high polyreactivity
27 | QVQLVESVGDLVQEGGSLRLSCAASGRIFYWYAMGWYRQAPGKETELVAAITSGGSTYYADSVKGRFTISRDNAKNTVYLQMNSLKPEDTAVYYCAKPFSSNSCSHGYWGQGTQVTVSS | low polyreactivity
28 | QVQLVESGGGLVQAGGSLRLSCAASGRIFRYNAMGWYRQAPGKEREFVAAITQSGGSTYYADSVKGRFTISRDNAKNTVYLQMNRLKPEDTAVYYSAADRFYWTYLNYQFLTDYWGQGTQVNVSS | high polyreactivity
29 | QVQLVESGGGLVQAGGSLRLSCAASGFTFSENTMGWYRQAPGKERELVADIDSGGSTYYADSVKGRFTISRDNAKNTVYLQMKRLKPEDTAVYYCAKDYHVVGGPTFLFEYDYWGQGSQVTVSS | low polyreactivity
30 | QDQLVESRGGIVQAVRSLRLSSAASGSTYRNYAMGWYRQAPGKERELVAAISGSGGRTNYADSVKGRFTISRDNAKNTVYLQMNSLKQEDTAVYYCNARFPDWALSEISNSTTYGYWGQGTQVNVSS | low polyreactivity
31 | QVQLVESGGGLVQAGGSLRLSCAASGRTFYVYAMGWYRQAPGKERELVAAITASGGSTYYADSVKGRFTLSRDNAKNTVYLQMNSLKPEDTAVYYCAARVVTLVRGVGYNYWGQGTQVTVSS | high polyreactivity
32 | QVQLVESGGGLVQAGGSLRLSCAASGSTFFRYAMGWYRQAPGKEREFVAAITSSGGNTYYADSVKGRFTISRDNAKNTVYLQMNSLKPEDTAVYYCADVWYSPYVKYNYWGQGTQVTVSS | low polyreactivity
33 | QVHLVESGGGLVQAGGSLRLSCAASGSTFWGYTMGWYRQAPGKERELVAAISTIGGSTYYADSVKGRFTISRDNAKNTVYLQMNSLKTEDTAVYYCAAYKGKHYKEGYWGQGTQVTVSS | low polyreactivity
34 | QVQLVESGGGLVQAGGSLRLSCAASGSTFGLYAMGWYRQAPGKERELVAAISYSGSSTYYADSVKGRFTISRDNAKNTVYLQMNSLKPEATAVYYCAARRSEHGYNYWGQGTQVSVSS | high polyreactivity
35 | QVQLVESGGGLVQAGGSLRLSCAASGSILWENAMGWYRQAPGKERELVATISVSGGGTYYADSVKGRFTISRDNAKNTVYLQMNSLKPEDTAVYYCAAPGFPSRNGFGYWGQGTQVTVSS | low polyreactivity
36 | QVQLVESVGGLVQAGGSLRLSCAASRIFRGYAMGRYRQAPGKERELVAAIRRGGSTNYADSVKGRFTISRDNAKNSVYFQMNSLKPEDTEVYYCAADFYYDRDVDYWGQGTQVTVSS | high polyreactivity
37 | QVQLVESGGGLVQAGGSLRLSCAASGIIFWRYAMGWYRQAPGKERELVASISSSGGRTYYADSVKGRFTISRDNAKNTVYLQMNSLKPEDTAVYYCAARGPYGYDLLYYWGQGTQVTVSS | high polyreactivity
38 | QVQLVESGGGLVQAGGSLRLSCAASGRTFIGYAMGWYRQAPGKERELVATISVSGGSTYYADSVKGRFTISRDNAKNTVYLQMNSLKPEDTAVYYCAKAYLRFYDGPYDYWGQGTQVTVSS | low polyreactivity
39 | QVQLVESGGGLVQAGGSLRLSCAASGRIIRDNAMGWYRQAPGKERELVAAISRRGGSTYYADSVKGRFTISRDNAKNTVYLQMNSRKPEDTAVYYCNKTTHSRTFRYDYWGQGTQVTVSS | low polyreactivity
40 | QVQLVESGGGLVQAGGSLRLSCDASGLIFPWNSMGWYRQAPGQERELVAAINGRDGSTYYADSVKGRFTISRDNAKNTVYLQMNSLKPEDTAVFYCAKGPSGVRTYREYDSWGQGTQVTVSS | low polyreactivity
41 | QVQLVESGGGLVQAGGSLRLSCAASGRIFGRNTMGWYRQAPGKERELVAVISFRGGSTYADSVKGRFTISRDNAKNTVYLQMNSLKPEDTAVYYCARTAYSTRPYRFDYWGQGTQVTVSS | high polyreactivity
42 | QVQLVESGGGLVHAGGSLRLSCAASGSIFEGYAMGWSRQAPGKERELVAAISRSGGSTYYADSVKGRFTISRDNAKNSVYLQINRLTPEATAVYYCAARKAIDYQGRHDHWGQGTQVTVSS | low polyreactivity
43 | QVQLVESVRGLVQAGGSLRLSCAASGSIFDYNAMGWYREAPGKEREFVASITYSGGSTNYADSVKGRFTISRDNAKNTVYLQMNSLKPEDTAVYYCSKTIGIVWIYYPGARYDYWGQGTQVTVSS | low polyreactivity
